Test results from article PMC9482650, “Quantitative fragmentomics allow affinity mapping of interactomes” (Nature Communications, 2022).

Assays:
Assay in all cases: holdup assay
Set-up in all cases: key: below the threshold = too weak to quantify, mostly under pKd 3.1 to 4
Details in all cases: plain residues with an end cap or a label only (N-terminal biotin on a linker: ado-ado)
[1] = target: AHNAK1, Q09666
[2] = target: T1, DFNB31_1, Q9P202
T1 sequence (Q9P202 135-233, limits assumed, looked up): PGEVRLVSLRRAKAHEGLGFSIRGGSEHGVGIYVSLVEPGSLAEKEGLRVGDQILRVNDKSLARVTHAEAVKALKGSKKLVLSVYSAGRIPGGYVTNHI

[3] = target: T2, DLG3_2, Q92796
T2 sequence (Q92796 221-321, limits assumed, looked up): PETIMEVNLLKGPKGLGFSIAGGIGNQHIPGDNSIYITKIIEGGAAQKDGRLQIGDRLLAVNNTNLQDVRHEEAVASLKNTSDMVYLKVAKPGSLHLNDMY

[4] = target: FRMPD2_2, Q68DX3
[5] = target: FRMPD2_3, Q68DX3
[6] = target: Inadl_10, Q8NI35
[7] = target: Inadl_3, Q8NI35
[8] = target: Inadl_9, Q8NI35
[9] = target: LIMK2, P53671
[10] = target: T3, LIN7A, O14910
T3 sequence (O14910 103-200, limits assumed, looked up): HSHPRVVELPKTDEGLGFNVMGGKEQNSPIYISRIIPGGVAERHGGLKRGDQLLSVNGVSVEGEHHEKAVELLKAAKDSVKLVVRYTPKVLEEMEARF

[11] = target: LNX1_2, Q8TBB1
[12] = target: MAGI1_2, Q96QZ7
[13] = target: MAGI2_4, Q86UL8
[14] = target: T4, MPDZ_5, O75970
T4 sequence (O75970 695-796, limits assumed, looked up): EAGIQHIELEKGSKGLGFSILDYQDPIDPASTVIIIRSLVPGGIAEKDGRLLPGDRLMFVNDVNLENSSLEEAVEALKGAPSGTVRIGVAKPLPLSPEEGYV

[15] = target: T5, NHERF3_3, Q5T2W1
T5 sequence (Q5T2W1 238-333, limits assumed, looked up): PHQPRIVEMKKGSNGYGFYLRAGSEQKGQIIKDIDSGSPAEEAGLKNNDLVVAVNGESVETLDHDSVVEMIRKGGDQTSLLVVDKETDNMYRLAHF

[16] = target: T6, PTPN13_1, Q12923
T6 sequence (Q12923 1088-1188, limits assumed, looked up): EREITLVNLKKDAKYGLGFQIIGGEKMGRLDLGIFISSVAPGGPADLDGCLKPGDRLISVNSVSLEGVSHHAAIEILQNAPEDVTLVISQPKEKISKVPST

[17] = target: PTPN3, P26045
[18] = target: T7, RADIL, Q96JH8
T7 sequence (Q96JH8 971-1071, limits assumed, looked up): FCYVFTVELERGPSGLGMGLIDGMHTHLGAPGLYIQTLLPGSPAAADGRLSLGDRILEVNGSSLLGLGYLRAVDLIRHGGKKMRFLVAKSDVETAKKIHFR

[19] = target: T8, RHPN1, Q8TCX5
T8 sequence (Q8TCX5 508-602, limits assumed, looked up): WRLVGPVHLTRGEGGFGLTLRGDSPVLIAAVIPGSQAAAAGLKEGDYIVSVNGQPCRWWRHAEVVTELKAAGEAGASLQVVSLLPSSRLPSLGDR

[20] = target: SCRIB_2, Q14160
[21] = target: T9, SNTG1, Q9NSN8
T9 sequence (Q9NSN8 52-150, limits assumed, looked up): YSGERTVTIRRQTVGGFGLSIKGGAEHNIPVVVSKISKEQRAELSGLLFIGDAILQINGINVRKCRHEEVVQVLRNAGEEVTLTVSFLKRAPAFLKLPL

[22] = target: T10, SNTG2, Q9NY99
T10 sequence (Q9NY99 68-166, limits assumed, looked up): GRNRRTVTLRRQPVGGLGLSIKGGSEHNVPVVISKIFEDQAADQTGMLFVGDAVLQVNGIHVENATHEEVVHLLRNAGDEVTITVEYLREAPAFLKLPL

[23] = target: DLG1_3, Q12959
[24] = target: T11, DLG3_1, Q92796
T11 sequence (Q92796 125-227, limits assumed, looked up): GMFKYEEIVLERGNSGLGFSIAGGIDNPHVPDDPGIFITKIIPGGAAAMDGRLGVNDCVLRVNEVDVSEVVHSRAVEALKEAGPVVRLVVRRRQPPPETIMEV

[25] = target: GORASP2, Q9H8Y8
[26] = target: NHERF4_1, Q86UT5-2
[27] = target: TJP1_3, Q07157
TJP1_3, Q07157, sequence (Q07157 416-512): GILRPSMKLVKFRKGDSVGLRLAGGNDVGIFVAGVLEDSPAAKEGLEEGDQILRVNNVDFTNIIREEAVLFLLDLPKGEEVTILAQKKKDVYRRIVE

PTPN3, P26045, sequence (P26045 505-587): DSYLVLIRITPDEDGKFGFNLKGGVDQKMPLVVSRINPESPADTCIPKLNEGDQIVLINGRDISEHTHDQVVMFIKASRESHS
Inadl_10, Q8NI35, sequence (Q8NI35 1673-1763): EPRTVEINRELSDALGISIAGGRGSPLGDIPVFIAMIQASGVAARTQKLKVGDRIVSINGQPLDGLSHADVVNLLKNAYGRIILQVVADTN
MAGI2_4, Q86UL8, sequence (Q86UL8 772-865): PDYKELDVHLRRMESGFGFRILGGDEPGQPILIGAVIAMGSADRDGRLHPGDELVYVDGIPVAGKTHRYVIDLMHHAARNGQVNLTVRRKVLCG
DLG1_3, Q12959, sequence (Q12959 457-571): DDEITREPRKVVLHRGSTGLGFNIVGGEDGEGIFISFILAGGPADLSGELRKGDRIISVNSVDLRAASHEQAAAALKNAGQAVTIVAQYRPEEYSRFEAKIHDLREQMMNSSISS
FRMPD2_2, Q68DX3, sequence (Q68DX3 944-1038): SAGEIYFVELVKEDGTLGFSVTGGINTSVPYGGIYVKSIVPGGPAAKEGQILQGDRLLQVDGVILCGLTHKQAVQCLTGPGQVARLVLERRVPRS
AHNAK1, Q09666, sequence (Q09666 4-100): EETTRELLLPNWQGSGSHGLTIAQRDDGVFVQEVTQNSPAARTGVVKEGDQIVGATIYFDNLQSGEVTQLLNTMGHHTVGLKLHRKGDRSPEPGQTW
NHERF4_1, Q86UT5-2, sequence (Q86UT5 other isoform, or with tags, fused parts or gaps): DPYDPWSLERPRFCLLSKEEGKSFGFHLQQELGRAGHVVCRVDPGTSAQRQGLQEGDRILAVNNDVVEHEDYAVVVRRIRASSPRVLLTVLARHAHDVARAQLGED
FRMPD2_3, Q68DX3, sequence (Q68DX3 1073-1166): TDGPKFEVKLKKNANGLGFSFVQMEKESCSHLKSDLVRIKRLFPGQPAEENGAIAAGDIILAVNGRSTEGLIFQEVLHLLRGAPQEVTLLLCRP
SCRIB_2, Q14160, sequence (Q14160 857-960): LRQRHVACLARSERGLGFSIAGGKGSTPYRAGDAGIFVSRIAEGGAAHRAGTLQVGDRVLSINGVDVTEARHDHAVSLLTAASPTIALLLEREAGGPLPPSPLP
Inadl_3, Q8NI35, sequence (Q8NI35 359-469): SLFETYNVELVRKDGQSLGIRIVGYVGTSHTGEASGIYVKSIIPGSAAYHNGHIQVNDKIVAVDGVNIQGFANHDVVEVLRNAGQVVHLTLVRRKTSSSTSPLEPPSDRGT
LNX1_2, Q8TBB1, sequence (Q8TBB1 371-470): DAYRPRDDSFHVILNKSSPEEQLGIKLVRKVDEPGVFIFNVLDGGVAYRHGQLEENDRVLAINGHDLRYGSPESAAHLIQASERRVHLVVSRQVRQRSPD
MAGI1_2, Q96QZ7, sequence (Q96QZ7 456-580): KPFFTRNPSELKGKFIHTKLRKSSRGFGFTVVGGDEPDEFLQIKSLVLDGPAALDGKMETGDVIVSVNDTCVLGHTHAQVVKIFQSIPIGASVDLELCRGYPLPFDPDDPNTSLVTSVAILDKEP
LIMK2, P53671, sequence (P53671 143-248): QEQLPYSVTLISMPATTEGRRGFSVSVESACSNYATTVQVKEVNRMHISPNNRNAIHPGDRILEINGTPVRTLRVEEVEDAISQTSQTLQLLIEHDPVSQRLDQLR
Inadl_9, Q8NI35, sequence (Q8NI35 1530-1615): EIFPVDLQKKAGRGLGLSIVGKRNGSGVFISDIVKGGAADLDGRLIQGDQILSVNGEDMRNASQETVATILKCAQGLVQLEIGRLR

EYRKDNKVAA [LSM14A, Q8ND56;Q8ND56-2]
pKd [1]: below the threshold | pKd [2]: below the threshold | pKd [3]: 4.23 | pKd [4]: below the threshold | pKd [5]: below the threshold | pKd [6]: below the threshold | pKd [7]: below the threshold | pKd [8]: below the threshold | pKd [9]: below the threshold | pKd [10]: below the threshold | pKd [11]: below the threshold | pKd [12]: below the threshold | pKd [13]: below the threshold | pKd [14]: below the threshold | pKd [15]: below the threshold | pKd [16]: below the threshold | pKd [17]: 3.95 | pKd [18]: below the threshold | pKd [19]: below the threshold | pKd [20]: below the threshold | pKd [21]: below the threshold | pKd [22]: below the threshold

GDHLDRRVVL [VAC14, Q08AM6]
pKd [1]: below the threshold | pKd [2]: below the threshold | pKd [23]: below the threshold | pKd [24]: below the threshold | pKd [3]: below the threshold | pKd [4]: below the threshold | pKd [5]: below the threshold | pKd [25]: 3.87 | pKd [6]: below the threshold | pKd [7]: below the threshold | pKd [8]: below the threshold | pKd [9]: below the threshold | pKd [10]: below the threshold | pKd [11]: below the threshold | pKd [12]: 3.51 | pKd [13]: below the threshold | pKd [14]: below the threshold | pKd [15]: below the threshold | pKd [26]: 4.07 | pKd [16]: 3.7 | pKd [17]: 3.92 | pKd [18]: 3.52 | pKd [19]: below the threshold | pKd [20]: 3.64 | pKd [21]: below the threshold | pKd [22]: below the threshold | pKd [27]: below the threshold

LRYARPADAL [PPP1R3G, B7ZBB8]
pKd [1]: below the threshold | pKd [2]: below the threshold | pKd [23]: below the threshold | pKd [24]: below the threshold | pKd [3]: below the threshold | pKd [4]: below the threshold | pKd [5]: below the threshold | pKd [25]: below the threshold | pKd [6]: below the threshold | pKd [7]: below the threshold | pKd [8]: below the threshold | pKd [9]: below the threshold | pKd [10]: below the threshold | pKd [11]: below the threshold | pKd [12]: below the threshold | pKd [13]: below the threshold | pKd [14]: below the threshold | pKd [15]: below the threshold | pKd [26]: 4.29 | pKd [16]: below the threshold | pKd [17]: below the threshold | pKd [18]: below the threshold | pKd [19]: below the threshold | pKd [20]: below the threshold | pKd [21]: below the threshold | pKd [22]: below the threshold | pKd [27]: below the threshold

KSTTRSSSSC [NDE1, Q9NXR1;Q9NXR1-2]
pKd [1]: below the threshold | pKd [2]: below the threshold | pKd [23]: below the threshold | pKd [24]: below the threshold | pKd [3]: 4.07 | pKd [4]: below the threshold | pKd [5]: below the threshold | pKd [25]: below the threshold | pKd [6]: below the threshold | pKd [7]: below the threshold | pKd [8]: below the threshold | pKd [9]: below the threshold | pKd [10]: below the threshold | pKd [11]: below the threshold | pKd [13]: below the threshold | pKd [14]: below the threshold | pKd [15]: below the threshold | pKd [16]: below the threshold | pKd [18]: below the threshold | pKd [19]: below the threshold | pKd [20]: below the threshold | pKd [21]: below the threshold | pKd [22]: below the threshold | pKd [27]: below the threshold

VGIERETDVL [EZH1, Q92800]
pKd [1]: below the threshold | pKd [2]: below the threshold | pKd [23]: below the threshold | pKd [24]: below the threshold | pKd [3]: 3.54 | pKd [4]: below the threshold | pKd [5]: below the threshold | pKd [25]: below the threshold | pKd [6]: below the threshold | pKd [7]: below the threshold | pKd [8]: below the threshold | pKd [9]: below the threshold | pKd [11]: below the threshold | pKd [12]: below the threshold | pKd [13]: below the threshold | pKd [14]: below the threshold | pKd [15]: below the threshold | pKd [26]: 3.8 | pKd [16]: below the threshold | pKd [17]: 3.52 | pKd [18]: below the threshold | pKd [19]: below the threshold | pKd [20]: below the threshold | pKd [21]: below the threshold | pKd [22]: below the threshold | pKd [27]: below the threshold
